{
  "source": "paper PMC5909843",
  "about": "(Immunity, 2018)",
  "molecular_target": "EBV gH/gL heterodimer, recombinant ectodomain (Epstein-Barr virus, UniProt P03231;P03212)",
  "experiment": "BLI",
  "data": [
    {"binder": "AMMO1 with the first residue of the heavy chain substituted by an asparagine (antibody, V domains shown) VH: NVQLVQSGADVKKPGASVKVSCKASGYTFIHFGISWVRQAPGQGLEWMGWIDTNNGNTNYAQSLQGRVTMTTDTSTGTAYMELRSLSTDDTAVYFCARALEMGHRSGFPFDYWGQGVLVTVSP VL: SYELTQPPSVSVAPGQRATITCGGHNIGAKNVHWYQQKPGQAPVLVIQYDSDRPSGIPERFSGSNSGSTATLTISRVEAGDEADYYCQVWDSGRGHPLYVFGGGTKVTVL", "values": [
      {"measurement": "binding result", "result": "binds"}
    ]},
    {"binder": "E1D1, murine anti-gH/gL monoclonal antibody (antibody, V domains shown) VH: EVQLEQSGPELVKPGASVKMSCKASGYTFTDYVISWVKQRTGQGLEWIGEIYPESGNTYYNEKFKGEATLTADKSSNTAYMQLSRLTSEDSAVYFCAEGYAMDFWGQGTSVTVSS VL: DIVITQTPLSLPVSLGDQASISCRSSQSLLHSNGNTYLHWYLQRPGQSPKLLIYKVSNRFSGVPDRFSGSGSGTDFTLMINRVEAEDLGVYFCSQSIHVPRTFGGGTKLEIK", "values": [
      {"measurement": "binding result", "result": "binds"}
    ]}
  ]
}
